Tested on: Escherichia coli TOP10
Assay: shrunken log2 fold change of peptide-encoding DNA abundance (4.5 h post-induction vs induction); higher = less antimicrobial activity (less host growth inhibition)
Conditions: time post-induction: 4.5 h; library: site-saturation at positions 5, 18, 19, 20
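Further: peptides expressed intracellularly from a pBAD plasmid library in pooled LB shake-flask culture, induced with 0.3% L-arabinose, DNA abundance read by NGS, three biological replicates, DESeq2 with apeglm shrinkage.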

Row | Sequence | shrunken log2 fold change
1 | RRIRQRPPRLPRPRPRPFWRPRP | -0.044
2 | RRIRQRPPRLPRPRPRPFYEPRP | -0.413
3 | RRIRQRPPRLPRPRPRPFYMPRP | -1.52
4 | RRIRQRPPRLPRPRPRPFYPPRP | 0.0712
5 | RRIRQRPPRLPRPRPRPFYQPRP | -0.104
6 | RRIRQRPPRLPRPRPRPGAMPRP | 0.155
7 | RRIRQRPPRLPRPRPRPGAYPRP | -0.506
8 | RRIRQRPPRLPRPRPRPGDFPRP | -0.179
9 | RRIRQRPPRLPRPRPRPGDGPRP | 0.415
10 | RRIRQRPPRLPRPRPRPGDLPRP | 0.01
11 | RRIRQRPPRLPRPRPRPGEKPRP | 0.139
12 | RRIRQRPPRLPRPRPRPGFMPRP | -0.176
13 | RRIRQRPPRLPRPRPRPGGSPRP | -0.141
14 | RRIRQRPPRLPRPRPRPGHDPRP | -0.112
15 | RRIRQRPPRLPRPRPRPGHMPRP | 0.0335
16 | RRIRQRPPRLPRPRPRPGKNPRP | -0.294
17 | RRIRQRPPRLPRPRPRPGKPPRP | 0.12
18 | RRIRQRPPRLPRPRPRPGLDPRP | 0.255
19 | RRIRQRPPRLPRPRPRPGLGPRP | 0.492
20 | RRIRQRPPRLPRPRPRPGLVPRP | 0.18
21 | RRIRQRPPRLPRPRPRPGNGPRP | 0.0197
22 | RRIRQRPPRLPRPRPRPGNNPRP | -0.54
23 | RRIRQRPPRLPRPRPRPGPMPRP | 0.261
24 | RRIRQRPPRLPRPRPRPGPYPRP | -0.0528
25 | RRIRQRPPRLPRPRPRPGQWPRP | 0.00718

Row | Sequence | shrunken log2 fold change
26 | RRIRQRPPRLPRPRPRPGRFPRP | 0.363
27 | RRIRQRPPRLPRPRPRPGRHPRP | 0.0349
28 | RRIRQRPPRLPRPRPRPGSNPRP | 0.127
29 | RRIRQRPPRLPRPRPRPGTGPRP | -0.121
30 | RRIRQRPPRLPRPRPRPGYQPRP | -0.164
31 | RRIRQRPPRLPRPRPRPHDAPRP | -0.0149
32 | RRIRQRPPRLPRPRPRPHDMPRP | -0.364
33 | RRIRQRPPRLPRPRPRPHDTPRP | -0.152
34 | RRIRQRPPRLPRPRPRPHEWPRP | 0.114
35 | RRIRQRPPRLPRPRPRPHFKPRP | -0.332
36 | RRIRQRPPRLPRPRPRPHFMPRP | -0.0158
37 | RRIRQRPPRLPRPRPRPHFVPRP | -0.208
38 | RRIRQRPPRLPRPRPRPHFYPRP | -0.229
39 | RRIRQRPPRLPRPRPRPHGFPRP | -0.0134
40 | RRIRQRPPRLPRPRPRPHGPPRP | -0.102
41 | RRIRQRPPRLPRPRPRPHGYPRP | -0.138
42 | RRIRQRPPRLPRPRPRPHHEPRP | 0.0974
43 | RRIRQRPPRLPRPRPRPHKEPRP | 0.114
44 | RRIRQRPPRLPRPRPRPHKTPRP | -0.146
45 | RRIRQRPPRLPRPRPRPHMEPRP | -0.172
46 | RRIRQRPPRLPRPRPRPHMFPRP | 0.0177
47 | RRIRQRPPRLPRPRPRPHMMPRP | -0.526
48 | RRIRQRPPRLPRPRPRPHQHPRP | -0.309
49 | RRIRQRPPRLPRPRPRPHRGPRP | 0.0502
50 | RRIRQRPPRLPRPRPRPHSAPRP | -0.0562

Row | Sequence | shrunken log2 fold change
51 | RRIRQRPPRLPRPRPRPHTAPRP | -0.926
52 | RRIRQRPPRLPRPRPRPHVCPRP | -0.0223
53 | RRIRQRPPRLPRPRPRPHVHPRP | -0.124
54 | RRIRQRPPRLPRPRPRPHWDPRP | -0.224
55 | RRIRQRPPRLPRPRPRPHWFPRP | 0.0358
56 | RRIRQRPPRLPRPRPRPHWVPRP | 0.0288
57 | RRIRQRPPRLPRPRPRPHWWPRP | 0.38
58 | RRIRQRPPRLPRPRPRPIAEPRP | -0.103
59 | RRIRQRPPRLPRPRPRPIATPRP | -0.0607
60 | RRIRQRPPRLPRPRPRPICTPRP | -0.0531
61 | RRIRQRPPRLPRPRPRPIDKPRP | 0.0866
62 | RRIRQRPPRLPRPRPRPIEEPRP | -0.00208
63 | RRIRQRPPRLPRPRPRPIEFPRP | -1.79
64 | RRIRQRPPRLPRPRPRPIFGPRP | -0.00652
65 | RRIRQRPPRLPRPRPRPIGYPRP | -0.0242
66 | RRIRQRPPRLPRPRPRPIHDPRP | 0.0242
67 | RRIRQRPPRLPRPRPRPIHKPRP | -0.651
68 | RRIRQRPPRLPRPRPRPIIQPRP | -0.248
69 | RRIRQRPPRLPRPRPRPIKLPRP | -0.0569
70 | RRIRQRPPRLPRPRPRPILLPRP | -0.0814
71 | RRIRQRPPRLPRPRPRPILTPRP | -0.955
72 | RRIRQRPPRLPRPRPRPINSPRP | -0.413
73 | RRIRQRPPRLPRPRPRPIPGPRP | -0.309
74 | RRIRQRPPRLPRPRPRPIPTPRP | -0.0272
75 | RRIRQRPPRLPRPRPRPIPWPRP | 0.0351

Row | Sequence | shrunken log2 fold change
76 | RRIRQRPPRLPRPRPRPIQDPRP | 0.0208
77 | RRIRQRPPRLPRPRPRPIQMPRP | -0.0176
78 | RRIRQRPPRLPRPRPRPIRIPRP | 0.0373
79 | RRIRQRPPRLPRPRPRPIRSPRP | -0.0132
80 | RRIRQRPPRLPRPRPRPITWPRP | 0.129
81 | RRIRQRPPRLPRPRPRPIWSPRP | -0.514
82 | RRIRQRPPRLPRPRPRPIYQPRP | -0.647
83 | RRIRQRPPRLPRPRPRPIYVPRP | 0.0693
84 | RRIRQRPPRLPRPRPRPKCCPRP | -0.113
85 | RRIRQRPPRLPRPRPRPKFTPRP | 0.025
86 | RRIRQRPPRLPRPRPRPKGQPRP | -0.0264
87 | RRIRQRPPRLPRPRPRPKHEPRP | 0.164
88 | RRIRQRPPRLPRPRPRPKHLPRP | 0.0736
89 | RRIRQRPPRLPRPRPRPKIKPRP | -0.273
90 | RRIRQRPPRLPRPRPRPKKMPRP | -0.108
91 | RRIRQRPPRLPRPRPRPKKYPRP | -0.0221
92 | RRIRQRPPRLPRPRPRPKLLPRP | -0.153
93 | RRIRQRPPRLPRPRPRPKMHPRP | 0.127
94 | RRIRQRPPRLPRPRPRPKMQPRP | -0.134
95 | RRIRQRPPRLPRPRPRPKNTPRP | -0.394
96 | RRIRQRPPRLPRPRPRPKQWPRP | 0.293
97 | RRIRQRPPRLPRPRPRPKSVPRP | -0.0026
98 | RRIRQRPPRLPRPRPRPKTGPRP | -0.151
99 | RRIRQRPPRLPRPRPRPKVVPRP | -0.0141
100 | RRIRQRPPRLPRPRPRPKVWPRP | 0.153

Row | Sequence | shrunken log2 fold change
101 | RRIRQRPPRLPRPRPRPKYSPRP | -0.0125
102 | RRIRQRPPRLPRPRPRPLALPRP | 0.318
103 | RRIRQRPPRLPRPRPRPLAWPRP | 0.15
104 | RRIRQRPPRLPRPRPRPLCGPRP | 0.0478
105 | RRIRQRPPRLPRPRPRPLDCPRP | -0.221
106 | RRIRQRPPRLPRPRPRPLDGPRP | 0.237
107 | RRIRQRPPRLPRPRPRPLDQPRP | -0.635
108 | RRIRQRPPRLPRPRPRPLEHPRP | -0.109
109 | RRIRQRPPRLPRPRPRPLELPRP | 0.0289
110 | RRIRQRPPRLPRPRPRPLGKPRP | -0.0227
111 | RRIRQRPPRLPRPRPRPLGPPRP | 0.23
112 | RRIRQRPPRLPRPRPRPLGTPRP | 0.139
113 | RRIRQRPPRLPRPRPRPLGVPRP | 0.0233
114 | RRIRQRPPRLPRPRPRPLHEPRP | 0.149
115 | RRIRQRPPRLPRPRPRPLKEPRP | -0.0182
116 | RRIRQRPPRLPRPRPRPLKVPRP | -0.102
117 | RRIRQRPPRLPRPRPRPLMMPRP | -0.0501
118 | RRIRQRPPRLPRPRPRPLNWPRP | -0.133
119 | RRIRQRPPRLPRPRPRPLPKPRP | -0.226
120 | RRIRQRPPRLPRPRPRPLPMPRP | 0.0747
121 | RRIRQRPPRLPRPRPRPLQEPRP | -0.129
122 | RRIRQRPPRLPRPRPRPLRDPRP | 0.082
123 | RRIRQRPPRLPRPRPRPLSDPRP | -0.0651
124 | RRIRQRPPRLPRPRPRPLSWPRP | 0.485
125 | RRIRQRPPRLPRPRPRPLTIPRP | -0.375

Row | Sequence | shrunken log2 fold change
126 | RRIRQRPPRLPRPRPRPLWKPRP | -0.0262
127 | RRIRQRPPRLPRPRPRPLYLPRP | -0.511
128 | RRIRQRPPRLPRPRPRPMDMPRP | -0.274
129 | RRIRQRPPRLPRPRPRPMFAPRP | 0.0682
130 | RRIRQRPPRLPRPRPRPMFLPRP | -0.38
131 | RRIRQRPPRLPRPRPRPMFYPRP | -0.503
132 | RRIRQRPPRLPRPRPRPMHKPRP | 0.0742
133 | RRIRQRPPRLPRPRPRPMIQPRP | 0.0718
134 | RRIRQRPPRLPRPRPRPMMCPRP | -0.0115
135 | RRIRQRPPRLPRPRPRPMNLPRP | -0.169
136 | RRIRQRPPRLPRPRPRPMNTPRP | 0.0106
137 | RRIRQRPPRLPRPRPRPMPMPRP | -0.00149
138 | RRIRQRPPRLPRPRPRPMQCPRP | -0.409
139 | RRIRQRPPRLPRPRPRPMQKPRP | 0.0524
140 | RRIRQRPPRLPRPRPRPMQPPRP | 0.0113
141 | RRIRQRPPRLPRPRPRPMRCPRP | 0.054
142 | RRIRQRPPRLPRPRPRPMRVPRP | 0.189
143 | RRIRQRPPRLPRPRPRPMSIPRP | -0.00929
144 | RRIRQRPPRLPRPRPRPMSSPRP | -0.0871
145 | RRIRQRPPRLPRPRPRPMWVPRP | 0.551
146 | RRIRQRPPRLPRPRPRPMYLPRP | -0.415
147 | RRIRQRPPRLPRPRPRPNCAPRP | 0.00462
148 | RRIRQRPPRLPRPRPRPNFDPRP | -0.347
149 | RRIRQRPPRLPRPRPRPNFEPRP | -0.00188
150 | RRIRQRPPRLPRPRPRPNHIPRP | -0.526

Source: the supplement of paper PMC9112550, “Optimization of the antimicrobial peptide Bac7 by deep mutational scanning” (BMC Biology, 2022)
